Laboratory results from patent US7485618B2, “FGF-5 supported and binding peptides” (Genencor International, Inc., priority 2003, dated 2009).

Target: T1, FGF-5 (Homo sapiens, UniProt P12034)
T1 construct: host or cells: FGF-5 added exogenously to NR6R-3T3 murine fibroblasts
T1 sequence (P12034 21-268): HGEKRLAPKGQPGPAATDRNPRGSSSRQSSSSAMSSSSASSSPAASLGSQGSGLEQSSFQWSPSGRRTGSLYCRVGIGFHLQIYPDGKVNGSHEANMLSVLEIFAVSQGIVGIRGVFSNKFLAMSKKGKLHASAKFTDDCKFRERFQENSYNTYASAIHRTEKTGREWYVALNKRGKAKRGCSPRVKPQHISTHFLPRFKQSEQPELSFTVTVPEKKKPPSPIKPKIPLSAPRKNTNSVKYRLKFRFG
Experiment: BLA binding assay on FGF-5 coated plates, nitrocefin readout
Settings: purified peptide-BLA fusions at 0.1 nM, bound to FGF-5
Description: This Example describes secondary screening methods used to analyze FGF-5 binding npeptides. Individual clones were picked and grown up in 5 ml LB+5 ppm CMP overnight at 37° C. The cell pastes were then treated with 125μ of B-PER reagent (Pierce) for 30 min with slow mixing. COSTAR plates (96-well) were coated with 0.1 μg (100 μl of 1 μg/ml) FGF-5, carrier-free (R&D Systems #237-F5/CF, Lot #GQ18304A) with gentle rocking at 4° C. overnight, followed by blocking with Superblock blocking buffer (Pierce) for several hours at room temperature. Then, 100 μl B-Per treated supernatant from individual clones from pGV02-L were added to the FGF-5 coated plates. After one hour, plates were washed six times with PBS, 0.05% TWEEN®-20 and 200 μl of nitrocefin assay buffer containing 0.1 mg/ml nitrocefin (Oxoid) was added to measure residual bound beta-lactamase activity, using Abs490/min. Control wells contained pCB04 (See, FIG. 1C) beta-lactamase as a control. […]
Cell pastes were harvested from the 200 ml cell cultures described in Example 6, by centrifugation at 3,000×g for 10 min. […] BLA activity of all liquid fractions was assayed using nitrocefin, and the concentration of fusion proteins in each fraction was calculated assuming the same specific activity as the WT enzyme. […]

B1: WT (wild-type): Wild-type BLA (E. cloaceae beta-lactamase) without peptide, control for binding of the fusions (protein)
chain: TPVSEKQLAEVVANTITPLMKAQSVPGMAVAVIYQGKPHYYTFGKADIAANKPVTPQTLFELGSISKTFTGVLGGDAIARGEISLDDAVTRYWPQLTGKQWQGIRMLDLATYTAGGLPLQVPDEVTDNASLLRFYQNWQPQWKPGTTRLYANASIGLFGALAVKPSGMPYEQAMTTRVLKPLKLDHTWINVPKAEEAHYAWGYRDGKAVRVSPGMLDAQAYGVKTNVQDMANWVMANMAPENVADASLKQGIALAQSRYWRIGSMYQGLGWEMLNWPVEANTVVEGSDSKVALAPLPVAEVNPPAPPVKASWVHKTGSTGGFGSYVAFIPEKQIGIVMLANTSYPNPARVEAAYHILEALQ
- Percent Bound at 0.1 nM: 0.4%
